Reference: the supplement of paper PMC9233669
Fewer inactive variants are shown than the library holds.

Legend:
biotinyl-Phe-oxazolone = experiment: self-aminoacylation, catalytic enhancement (BFO) (fold over background); higher = more active; k-Seq, kA / k0A0; sequences stand for … in GGGAAUGGAUCCACAUCUACGAAUUC…UUCACUGCAGACUUGACGAAGCUG
Method in brief: (§1)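 Mutagenized RNA pools with a 21-nt variable region (0.43 μM) reacted with each biotinyl-aminoacyl-oxazolone at 2–1250 μM. Reactions ran in 50 μL HEPES/NaCl/KCl/MgCl2/CaCl2 buffer with 5% acetonitrile, pH 6.9–7.0, for 90 minutes at room temperature. Streptavidin-captured RNA was quantified by triplicate qPCR and Illumina sequencing, and per-sequence fraction reacted was fit to a pseudo-first-order model with 1000 bootstraps. Catalytic enhancement is median kA divided by the uncatalyzed rate, the low-activity peak of a bimodal Gaussian fit.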

biotinyl-Ile-oxazolone = experiment: self-aminoacylation, catalytic enhancement (BIO) (fold over background); higher = more active; k-Seq, kA / k0A0; sequences stand for … in GGGAAUGGAUCCACAUCUACGAAUUC…UUCACUGCAGACUUGACGAAGCUG
Method in brief: as §1

biotinyl-Met-oxazolone = experiment: self-aminoacylation, catalytic enhancement (BMO) (fold over background); higher = more active; k-Seq, kA / k0A0; sequences stand for … in GGGAAUGGAUCCACAUCUACGAAUUC…UUCACUGCAGACUUGACGAAGCUG
Method in brief: as §1

biotinyl-Val-oxazolone = experiment: self-aminoacylation, catalytic enhancement (BVO) (fold over background); higher = more active; k-Seq, kA / k0A0; sequences stand for … in GGGAAUGGAUCCACAUCUACGAAUUC…UUCACUGCAGACUUGACGAAGCUG
Method in brief: as §1

biotinyl-Leu-oxazolone = experiment: self-aminoacylation, catalytic enhancement (BLO) (fold over background); higher = more active; k-Seq, kA / k0A0; sequences stand for … in GGGAAUGGAUCCACAUCUACGAAUUC…UUCACUGCAGACUUGACGAAGCUG
Method in brief: as §1

biotinyl-Trp-oxazolone = experiment: self-aminoacylation, catalytic enhancement (BWO) (fold over background); higher = more active; k-Seq, kA / k0A0; sequences stand for … in GGGAAUGGAUCCACAUCUACGAAUUC…UUCACUGCAGACUUGACGAAGCUG
Method in brief: as §1

Sequence	self-aminoacylation (biotinyl-Phe-oxazolone)	self-aminoacylation (biotinyl-Ile-oxazolone)	self-aminoacylation (biotinyl-Met-oxazolone)	self-aminoacylation (biotinyl-Val-oxazolone)	self-aminoacylation (biotinyl-Leu-oxazolone)	self-aminoacylation (biotinyl-Trp-oxazolone)
AUUGCCCGGGUCAUCGAGUGA [Fam2.1 aminoacylation ribozyme variant]	45.4	3.01	6.39	3.8	7.35	6.49
AUUACCCUUCUCAUCGAGUGA [Fam2.1 aminoacylation ribozyme variant]	30.8	3.51	6.6	3.65	6.53	9.57
CUGCUUCAAACAAUAGGUCUG [Fam1A.1 aminoacylation ribozyme variant]	0.781	0.621	0.551	0.669	0.547	0.575
AAGUCUGGUAAUAGUCGCAAG [Fam3.1 aminoacylation ribozyme variant]	2.18	1.17	1.16	0.918	0.903	0.868
CUACUUCAGACAAUCGGUUUG [Fam1A.1 aminoacylation ribozyme variant]	0.819	0.771	0.613	0.86	0.596	0.646
AGUACACUGGUCAUCGAGUGA [Fam2.1 aminoacylation ribozyme variant]	19.1	3.01	4.07	2.81	4.42	5.76
AAGUUUGCUAGUAGUCGCAGG [Fam3.1 aminoacylation ribozyme variant]	2.48	0.89	1.02	0.799	0.956	1.05
AUGACCCUUGUCAUCGAGUGA [Fam2.1 aminoacylation ribozyme variant]	31.3	3.06	6.11	3.19	6.36	7
CCACAAUUCAUGCAAUCGGUC [Fam1B.1 aminoacylation ribozyme variant]	1.19	1.25	1.1	1.41	1.16	0.87
CUACUUCAAACAUUCGGUCUU [Fam1A.1 aminoacylation ribozyme variant]	0.774	1.15	1.38	1.11	1.03	0.767
AUUAACCUGGUCAUCUAGUGA [Fam2.1 aminoacylation ribozyme variant]	52.4	4.57	9.41	4.53	9.7	11.1
AAGUUUGCUAAUAGACGGAAG [Fam3.1 aminoacylation ribozyme variant]	0.91	0.637	0.544	0.584	0.406	0.764
AUUACCCUGUUCAUUGAGUGA [Fam2.1 aminoacylation ribozyme variant]	83.6	5.73	13.8	5.4	12.7	16.3
CCACACUGCAAGCAAUCAGUC [Fam1B.1 aminoacylation ribozyme variant]	1.1	0.79	0.584	0.741	0.852	0.551
AUUCCCCUAGGUCCUCGGGUG [Fam2.2 aminoacylation ribozyme variant]	241	19.6	26.9	17.1	37.9	24.6
UUUAUCCUGGUCAUCGAGUGA [Fam2.1 aminoacylation ribozyme variant]	10.2	5.25	8.6	4.7	9.68	11.3
AAGUAUGUUAAUAGUCGCAAG [Fam3.1 aminoacylation ribozyme variant]	1.49	1.44	1.4	1.24	1.44	1.38
GUACUUCAAACAAUUGGUCUG [Fam1A.1 aminoacylation ribozyme variant]	1.82	1.36	1.18	1.16	1.34	1.75
AAGUUUGAUAAUAGUAGCAAG [Fam3.1 aminoacylation ribozyme variant]	0.835	0.724	0.756	0.691	0.535	0.667
CGACACUUCGAGCAAUCGGUC [Fam1B.1 aminoacylation ribozyme variant]	1.37	1.24	1.28	1.4	1.18	0.998
AUUCACCUAGGUCAUCGGGUG [Fam2.2 aminoacylation ribozyme variant]	486	33.2	60.1	28.4	83.7	45.6
AUGUUUGCUGAUAGUCGCAAG [Fam3.1 aminoacylation ribozyme variant]	3.84	1.81	1.1	1.37	1.33	1.38
AAGUUUGGUAAUAGUCCCAAG [Fam3.1 aminoacylation ribozyme variant]	1.39	1.32	1.05	0.864	0.963	1.04
CCACACUACAAGCAAUCGGUU [Fam1B.1 aminoacylation ribozyme variant]	1.55	1.02	0.918	1.08	0.677	1.39
AAGUUUGCUAAUAGUCGAAUG [Fam3.1 aminoacylation ribozyme variant]	1.48	1.09	1.17	0.903	0.88	1.17
